Measurements as given in paper PMC12548662.

Target: Recombinant human α-centractin with an N-terminal His6 tag (human) (UniProt P61163)
Chain of UniProt P61163 (P61163 whole entry): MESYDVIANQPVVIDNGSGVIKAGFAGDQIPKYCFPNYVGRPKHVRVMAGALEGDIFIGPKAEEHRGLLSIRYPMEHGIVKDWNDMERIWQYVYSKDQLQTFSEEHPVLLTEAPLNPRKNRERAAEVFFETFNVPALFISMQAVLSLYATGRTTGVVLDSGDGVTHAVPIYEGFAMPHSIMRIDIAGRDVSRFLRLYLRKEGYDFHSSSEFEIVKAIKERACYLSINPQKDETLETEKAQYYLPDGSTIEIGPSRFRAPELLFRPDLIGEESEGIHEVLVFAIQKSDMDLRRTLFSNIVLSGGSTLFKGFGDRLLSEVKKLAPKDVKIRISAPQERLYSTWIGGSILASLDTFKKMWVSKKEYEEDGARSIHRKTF

B1: Recombinant His6-tagged human SETD3 (wild-type) (enzyme)
chain: MGKKSRVKTQKSGTGATATVSPKEILNLTSELLQKCSSPAPGPGKEWEEYVQIRTLVEKIRKKQKGLSVTFDGKREDYFPDLMKWASENGASVEGFEMVNFKEEGFGLRATRDIKAEELFLWVPRKLLMTVESAKNSVLGPLYSQDRILQAMGNIALAFHLLCERASPNSFWQPYIQTLPSEYDTPLYFEEDEVRYLQSTQAIHDVFSQYKNTARQYAYFYKVIQTHPHANKLPLKDSFTYEDYRWAVSSVMTRQNQIPTEDGSRVTLALIPLWDMCNHTNGLITTGYNLEDDRCECVALQDFRAGEQIYIFYGTRSNAEFVIHSGFFFDNNSHDRVKIKLGVSKSDRLYAMKAEVLARAGIPTSSVFALHFTEPPISAQLLAFLRVFCMTEEELKEHLLGDSAIDRIFTLGNSEFPVSWDNEVKLWTFLEDRASLLLKTYKTTIEEDKSVLKNHDLSVRAKMAIKLRLGEKEILEKAVKSAAVNREYYRQQMEEKAPLPKYEESNLGLLESSVGDSRLPLVLRNLEEEAGVQDALNIREAISKAKATENGLVNGENSIPNGTRSENESLNQESKRAVEDAKGSSSDSTAGVKE
KM of SETD3 for α-centractin (0.2–5 µM), radiochemical methyltransferase assay, 5 min at 37 °C with 1 µM [1H+3H]SAM: 3.83 µM
